# Laboratory results as given in patent US7118879.
# Read-outs that look alike come from different tables or passages of the source.
# Columns and labels:
# [1] = target: human neutrophil elastase (immobilized on Reacti-Gel agarose beads, or free) (human) (UniProt P08246); assay: HNE beads, pH 7.0 eluate
# [2] = target: human neutrophil elastase (immobilized on Reacti-Gel agarose beads, or free) (human) (UniProt P08246); assay: pH elution of clonal phage from HNE beads (FIG. 9)
# [3] = target: human neutrophil elastase (immobilized on Reacti-Gel agarose beads, or free) (human) (UniProt P08246); assay: HNE beads, pH 4.5 eluate
# [4] = target: human neutrophil elastase (immobilized on Reacti-Gel agarose beads, or free) (human) (UniProt P08246); assay: HNE beads, pH 4.0 eluate
# [5] = target: human neutrophil elastase (immobilized on Reacti-Gel agarose beads, or free) (human) (UniProt P08246); assay: HNE beads, pH 2.5 eluate
# [6] = target: human neutrophil elastase (immobilized on Reacti-Gel agarose beads, or free) (human) (UniProt P08246); assay: HNE beads, all pH eluates
# [7] = target: human neutrophil elastase (immobilized on Reacti-Gel agarose beads, or free) (human) (UniProt P08246); assay: HNE beads, pH 3.5 eluate
# [8] = target: human neutrophil elastase (immobilized on Reacti-Gel agarose beads, or free) (human) (UniProt P08246); assay: HNE beads, pH 6.0 eluate
# [9] = target: human neutrophil elastase (immobilized on Reacti-Gel agarose beads, or free) (human) (UniProt P08246); assay: HNE beads, pH 3.0 eluate
# [10] = target: human neutrophil elastase (immobilized on Reacti-Gel agarose beads, or free) (human) (UniProt P08246); assay: HNE beads, pH 4.5 eluate; remark: listed apart in the source
# [11] = target: human neutrophil elastase (immobilized on Reacti-Gel agarose beads, or free) (human) (UniProt P08246); assay: HNE beads, pH 2.0 eluate
# [12] = target: human neutrophil elastase (immobilized on Reacti-Gel agarose beads, or free) (human) (UniProt P08246); assay: HNE beads, all pH eluates; remark: listed apart in the source
# [13] = target: human neutrophil elastase (immobilized on Reacti-Gel agarose beads, or free) (human) (UniProt P08246); assay: HNE beads, final TBS-TWEEN wash
# [14] = target: human neutrophil elastase (immobilized on Reacti-Gel agarose beads, or free) (human) (UniProt P08246); assay: HNE beads, all pH eluates; remark: listed apart in the source
# [15] = target: human neutrophil elastase (immobilized on Reacti-Gel agarose beads, or free) (human) (UniProt P08246); assay: HNE beads, pH 3.0 eluate; remark: listed apart in the source
# [16] = target: human neutrophil elastase (immobilized on Reacti-Gel agarose beads, or free) (human) (UniProt P08246); assay: HNE beads, pH 7.0 eluate; remark: listed apart in the source
# [17] = target: human neutrophil elastase (immobilized on Reacti-Gel agarose beads, or free) (human) (UniProt P08246); assay: HNE beads, pH 5.5 eluate
# [18] = target: human neutrophil elastase (immobilized on Reacti-Gel agarose beads, or free) (human) (UniProt P08246); assay: HNE beads, pH 3.5 eluate; remark: listed apart in the source
# [19] = target: human neutrophil elastase (immobilized on Reacti-Gel agarose beads, or free) (human) (UniProt P08246); assay: HNE beads, pH 5.0 eluate
# [20] = target: human neutrophil elastase (immobilized on Reacti-Gel agarose beads, or free) (human) (UniProt P08246); assay: HNE beads, pH 3.5 eluate; remark: listed apart in the source
# [21] = target: human neutrophil elastase (immobilized on Reacti-Gel agarose beads, or free) (human) (UniProt P08246); assay: HNE beads, pH 2.0 eluate; remark: listed apart in the source
# [22] = target: human neutrophil elastase (immobilized on Reacti-Gel agarose beads, or free) (human) (UniProt P08246); assay: HNE beads, wash
# [23] = target: human neutrophil elastase (immobilized on Reacti-Gel agarose beads, or free) (human) (UniProt P08246); assay: HNE beads, pH 2.5 eluate; remark: listed apart in the source
# [24] = target: human neutrophil elastase (immobilized on Reacti-Gel agarose beads, or free) (human) (UniProt P08246); assay: pH elution of phage from HNE beads
# [25] = target: human neutrophil elastase (immobilized on Reacti-Gel agarose beads, or free) (human) (UniProt P08246); assay: HNE beads, pH 2.0 eluate; remark: listed apart in the source
# [26] = target: human neutrophil elastase (immobilized on Reacti-Gel agarose beads, or free) (human) (UniProt P08246); assay: HNE beads, pH 6.0 eluate; remark: listed apart in the source
# [27] = target: human neutrophil elastase (immobilized on Reacti-Gel agarose beads, or free) (human) (UniProt P08246); assay: HNE beads, pH 5.5 eluate; remark: listed apart in the source
# [28] = target: human neutrophil elastase (immobilized on Reacti-Gel agarose beads, or free) (human) (UniProt P08246); assay: HNE beads, pH 4.0 eluate; remark: listed apart in the source
# [29] = target: human neutrophil elastase (immobilized on Reacti-Gel agarose beads, or free) (human) (UniProt P08246); assay: HNE beads, pH 7.0 eluate; remark: listed apart in the source
# [30] = target: human neutrophil elastase (immobilized on Reacti-Gel agarose beads, or free) (human) (UniProt P08246); assay: HNE beads, pH 5.0 eluate; remark: listed apart in the source
# [31] = target: trypsin (active, immobilized on beads, or in solution) (UniProt P00760); assay: acid-eluted from trypsin beads
# Sequence of trypsin (active, immobilized on beads, or in solution) (P00760 24-246): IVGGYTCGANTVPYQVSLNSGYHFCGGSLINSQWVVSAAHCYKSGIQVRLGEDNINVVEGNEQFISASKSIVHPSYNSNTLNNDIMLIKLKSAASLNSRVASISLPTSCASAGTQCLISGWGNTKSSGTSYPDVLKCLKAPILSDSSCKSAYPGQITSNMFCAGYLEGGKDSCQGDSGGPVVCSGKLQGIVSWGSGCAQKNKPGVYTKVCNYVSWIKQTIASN
# [32] = target: human neutrophil elastase (immobilized on Reacti-Gel agarose beads, or free) (human) (UniProt P08246); assay: acid-eluted from HNE beads
# [33] = target: anhydro-trypsin (agarose-immobilized) (UniProt P00760); assay: eluted from anhydrotrypsin beads
# [34] = target: trypsin (active, immobilized on beads, or in solution) (UniProt P00760); assay: eluted from trypsin beads
# [35] = target: anhydro-trypsin (agarose-immobilized) (UniProt P00760); assay: anhydrotrypsin beads, experiment 1
# [36] = target: human neutrophil elastase (immobilized on Reacti-Gel agarose beads, or free) (human) (UniProt P08246); assay: HNE beads
# [37] = target: anhydro-trypsin (agarose-immobilized) (UniProt P00760); assay: titer after anhydrotrypsin beads
# [38] = target: anhydro-trypsin (agarose-immobilized) (UniProt P00760); assay: acid-eluted from anhydrotrypsin beads, experiment 1
# [39] = target: protein A (agarose beads) (UniProt P38507); assay: titer after protein A beads alone
# [40] = target: anhydro-trypsin (agarose-immobilized) (UniProt P00760); assay: anhydrotrypsin beads
# [41] = target: trypsin (active, immobilized on beads, or in solution) (UniProt P00760); assay: trypsin beads
# [42] = target: anhydro-trypsin (agarose-immobilized) (UniProt P00760); assay: acid-eluted from anhydrotrypsin beads, experiment 2
# [43] = target: anhydro-trypsin (agarose-immobilized) (UniProt P00760); assay: anhydrotrypsin beads, experiment 2
# Sequence of human neutrophil elastase (immobilized on Reacti-Gel agarose beads, or free) (human) (P08246 30-247 limits assumed): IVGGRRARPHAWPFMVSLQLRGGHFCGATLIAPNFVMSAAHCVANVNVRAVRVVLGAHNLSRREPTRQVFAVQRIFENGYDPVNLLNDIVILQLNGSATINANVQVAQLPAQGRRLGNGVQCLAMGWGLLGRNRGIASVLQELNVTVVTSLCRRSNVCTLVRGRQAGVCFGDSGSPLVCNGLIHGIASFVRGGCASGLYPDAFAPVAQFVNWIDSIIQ
substance,measurement,setting,value
EpiNE7 phage (designed binder),fraction of input,[1],0.0003
same,pH of elution peak,[2],3.5 pH
same,fraction of input,[3],0.00035
same,total pfu in sample,[3],1.2e+06 pfu
same,fraction of input,[4],0.00094
same,total pfu in sample,[4],1.7e+06 pfu
same,fraction of input,[5],0.00016
same,total pfu in sample,[5],280000 pfu
same,"fraction of input, SUM of pH elution fractions",[6],0.003
same,"total pfu, SUM of pH elution fractions",[6],6.4e+06 pfu
same,fraction of input,[7],0.00029
same,total pfu in sample,[7],950000 pfu
same,fraction of input,[8],0.00041
same,total pfu in sample,[8],1.4e+06 pfu
same,fraction of input,[9],0.00021
same,total pfu in sample,[9],380000 pfu
same,fraction of input,[10],0.00061
same,total pfu in sample,[10],1.1e+06 pfu
same,fraction of input,[11],0.00016
same,total pfu in sample,[11],290000 pfu
same,"fraction of input, SUM of pH elution fractions",[12],0.0043
same,fraction of input,[13],0.00012
same,total pfu in sample,[13],380000 pfu
same,"fraction of input, SUM of pH elution fractions",[14],0.0041
same,"total pfu, SUM of pH elution fractions",[14],7.6e+06 pfu
same,fraction of input,[15],0.0002
same,total pfu in sample,[15],660000 pfu
same,fraction of input,[16],0.00029
same,total pfu in sample,[16],520000 pfu
same,fraction of input,[17],0.00028
same,total pfu in sample,[17],940000 pfu
same,fraction of input,[18],0.003
same,fraction of input,[19],0.00029
same,total pfu in sample,[19],950000 pfu
same,fraction of input,[20],0.00061
same,total pfu in sample,[20],1.1e+06 pfu
same,fraction of input,[21],0.001
same,fraction of input,[22],6e-05
same,fraction of input,[23],4.8e-05
same,total pfu in sample,[23],160000 pfu
same,pH of elution peak,[24],3.5 pH
same,fraction of input,[25],9.1e-05
same,total pfu in sample,[25],300000 pfu
same,fraction of input,[26],0.00036
same,total pfu in sample,[26],640000 pfu
same,fraction of input,[27],0.00043
same,total pfu in sample,[27],780000 pfu
same,fraction of input,[28],0.00048
same,total pfu in sample,[28],1.6e+06 pfu
same,fraction of input,[29],0.00018
same,total pfu in sample,[29],620000 pfu
same,fraction of input,[30],0.00047
same,total pfu in sample,[30],840000 pfu
"M13mp18 phage (wild type, non-display phage)","eluted phage, % of input",[31],0.0005%
same,"eluted phage, % of input",[32],0.0003%
same,"eluted phage, % of input",[33],0.1%
same,"eluted phage, % of input",[34],0.00023%
same,binding relative to M13MP18,[35],1 fold
same,relative binding (to M13MP18),[36],1 fold
same,% of input pfu post incubation,[37],121%
same,"eluted phage, % of input",[38],0.2%
same,% of input pfu,[39],72%
same,relative binding (to M13MP18),[40],1 fold
same,relative binding (to M13MP18),[41],1 fold
same,"eluted phage, % of input",[42],0.3%
same,binding relative to M13mp18,[43],1 fold
